Measurements taken from patent EP4793290A2.

Target: mouse PD-L1 (mouse) (UniProt Q9EP73)
Experiment: flow cytometry on DOdKO-mPD-L1/mCD80 cells pretreated with 10 µg/ml TKMG48

Sequence of soluble mouse PD-1 extracellular region (PD-1-EC) protein (Q02242 other isoform, or with tags, fused parts or gaps): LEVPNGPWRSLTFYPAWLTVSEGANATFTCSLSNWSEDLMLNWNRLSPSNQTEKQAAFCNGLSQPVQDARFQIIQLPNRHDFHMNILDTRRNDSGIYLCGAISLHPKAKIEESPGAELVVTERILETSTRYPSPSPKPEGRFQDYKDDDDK
Sequence of mouse PD-L1 (mouse) (Q9EP73 19-290 limits assumed): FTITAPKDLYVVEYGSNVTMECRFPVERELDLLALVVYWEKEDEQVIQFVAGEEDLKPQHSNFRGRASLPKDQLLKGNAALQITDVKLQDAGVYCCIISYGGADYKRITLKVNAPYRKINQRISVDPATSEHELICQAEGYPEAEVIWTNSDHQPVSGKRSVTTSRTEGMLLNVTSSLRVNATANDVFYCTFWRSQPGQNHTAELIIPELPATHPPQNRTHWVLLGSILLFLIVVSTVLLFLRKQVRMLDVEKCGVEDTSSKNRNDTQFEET

amount of binding (mean fluorescence intensity) relative to control IgG pretreatment: 10.1 times
Substance: soluble mouse PD-1 extracellular region (PD-1-EC) protein (from UniProt Q02242 25-167) (receptor)
